{"source": "patent US20230181748A1", "about": "(VIB VZW, published 2023)", "binders": {"B1": {"name": "AbCap_25 (peptide)", "peptide": "KLWFFAGSGAPIGL"}}, "biological_target": "preformed, sonicated Aβ aggregates (UniProt P05067 672-713)", "sequence (P05067 672-713)": "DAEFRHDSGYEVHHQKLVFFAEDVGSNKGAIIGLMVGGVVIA", "test": "cell-based or functional assay"}
{"binder": "B1", "values": [{"measurement": "aggregation seeding capacity of Aβ in Aβ biosensor cells (IC50)", "value": 1.42, "unit": "µM"}]}
